Test results taken from the Human Domainome abundance scans (Beltran et al. 2025).
± gives the uncertainty stated by the source.

B1: Pituitary-specific positive transcription factor 1, residues 130 to 198; numbered along this chain, P28069 (parent)
chain: RELEKFANEFKVRRIKLGYTQTNVGEALAAVHGSEFSQTTICRFENLQLSFKNACKLKAILSKWLEEAE

Variants of: B1
Assay: abundance fitness (aPCA) (normalised: wild type 0, dead -1); higher = more abundant; growth selection in yeast, the domain comes from the species named
Conditions: Homo sapiens

**Q.** With RELEKFANEFKVRRIKLGYTQTNVGEALAAVHGSEFSQTCICRFENLQLSFKNACKLKAILSKWLEEAE [T40C] as the variant, how does the abundance fitness read?
**A.** The abundance fitness was -0.512 ± 0.22.

**Q.** With RELEKFANEFKVRRIKLGYTQTNVGEALAAVHGSEFSQTTICRFENLQLSFKNGCKLKAILSKWLEEAE [A54G] as the variant, how does the abundance fitness read?
**A.** The abundance fitness was -0.295 ± 0.18.

**Q.** With RELEKFANEFKVRRIKLGYTQLNVGEALAAVHGSEFSQTTICRFENLQLSFKNACKLKAILSKWLEEAE [T22L] as the variant, how does the abundance fitness read?
**A.** Its abundance fitness is -0.156 ± 0.062.

**Q.** Which abundance fitness does the source give for FELEKFANEFKVRRIKLGYTQTNVGEALAAVHGSEFSQTTICRFENLQLSFKNACKLKAILSKWLEEAE [R1F] here?
**A.** Its abundance fitness is -0.128 ± 0.23.

**Q.** With RELEKFANEFKVRRIKLGYTQTNVGEALAAVHGSEFSQTTICRFENLQLSFKNACKLKAILSKWLEQAE [E67Q] as the variant, how does the abundance fitness read?
**A.** Its abundance fitness is -0.125 ± 0.11.

**Q.** Which abundance fitness does the source give for RELEKFANEFKVRRIKLCYTQTNVGEALAAVHGSEFSQTTICRFENLQLSFKNACKLKAILSKWLEEAE [G18C] here?
**A.** Its abundance fitness is -0.688 ± 0.23.

**Q.** Which abundance fitness does the source give for RELEKFANEFKVRRIKLGYTQTNVGEALAAVHGSEFSQTTICRFENLQLSFKNACKLKAILTKWLEEAE [S62T] here?
**A.** Its abundance fitness is 0.014 ± 0.07.

**Q.** For RELEKFANEFKVRRIKLGYTQTNVGEALAAVHGSEFSQTTICRFENLQLSFKNACKLKATLSKWLEEAE [I60T], which abundance fitness is on record?
**A.** Its abundance fitness is -0.51 ± 0.08.

**Q.** Which abundance fitness does the source give for RELEKFANEFKVRRIKLGYTQTNVGEALAAVHGSEFSQTTICNFENLQLSFKNACKLKAILSKWLEEAE [R43N] here?
**A.** The abundance fitness was -0.085 ± 0.1.

**Q.** With RELEKFANEFKVRRIKLGYTQWNVGEALAAVHGSEFSQTTICRFENLQLSFKNACKLKAILSKWLEEAE [T22W] as the variant, how does the abundance fitness read?
**A.** Its abundance fitness is 0.18 ± 0.16.

**Q.** Which abundance fitness does the source give for RELEKFANEFKVRRIKLGYTQTNVGEALAAVHGSEFSQTTICRFENLQYSFKNACKLKAILSKWLEEAE [L49Y] here?
**A.** Its abundance fitness is -0.477 ± 0.087.

**Q.** Which abundance fitness does the source give for RELEKFANEFKVRRIKLGYTQTNVGEALAAVHGSEFSQTTICRFENLQLSFKNACKLKAILSKWLEEAF [E69F] here?
**A.** Its abundance fitness is -0.616 ± 0.32.

**Q.** For RELEKFANEFKVRRIKLGYTQTNVGEALAAVHSSEFSQTTICRFENLQLSFKNACKLKAILSKWLEEAE [G33S], which abundance fitness is on record?
**A.** The abundance fitness was -0.75 ± 0.07.

**Q.** With RELEKFANEFKVRRIKLGYTQTNVGEALAAVHGSEFSQTTICRFENLQLSFKNACKYKAILSKWLEEAE [L57Y] as the variant, how does the abundance fitness read?
**A.** Its abundance fitness is -0.156 ± 0.12.

**Q.** Which abundance fitness does the source give for RELEKFANEFKVRRIKLGYTQTNVGEALAPVHGSEFSQTTICRFENLQLSFKNACKLKAILSKWLEEAE [A30P] here?
**A.** The abundance fitness was -0.468 ± 0.091.

**Q.** With RELEKFANEFKVRRIKLGYTQTNVGEALAAVHGSEFSQTTICRFENLQLSFKNCCKLKAILSKWLEEAE [A54C] as the variant, how does the abundance fitness read?
**A.** The abundance fitness was -0.382 ± 0.33.

**Q.** With RELEKFAWEFKVRRIKLGYTQTNVGEALAAVHGSEFSQTTICRFENLQLSFKNACKLKAILSKWLEEAE [N8W] as the variant, how does the abundance fitness read?
**A.** The abundance fitness was -0.414 ± 0.097.

**Q.** With RELEKFANEFKVRRIKLGYTQTNVGEALAAVHGSEFSQTTICRFENLQLSFKNWCKLKAILSKWLEEAE [A54W] as the variant, how does the abundance fitness read?
**A.** The abundance fitness was -0.302 ± 0.14.

**Q.** For RELEKFANEFKVRRIKRGYTQTNVGEALAAVHGSEFSQTTICRFENLQLSFKNACKLKAILSKWLEEAE [L17R], which abundance fitness is on record?
**A.** Its abundance fitness is -0.803 ± 0.11.

**Q.** For RELEKFANEFKVRRIKLGYTQTNRGEALAAVHGSEFSQTTICRFENLQLSFKNACKLKAILSKWLEEAE [V24R], which abundance fitness is on record?
**A.** The abundance fitness was -0.931 ± 0.23.

**Q.** With RELEKFANEFKVRRIKLGYTQTRVGEALAAVHGSEFSQTTICRFENLQLSFKNACKLKAILSKWLEEAE [N23R] as the variant, how does the abundance fitness read?
**A.** Its abundance fitness is -0.053 ± 0.059.

**Q.** For RELEKFANEFKVRRIKWGYTQTNVGEALAAVHGSEFSQTTICRFENLQLSFKNACKLKAILSKWLEEAE [L17W], which abundance fitness is on record?
**A.** The abundance fitness was -0.638 ± 0.11.

**Q.** Which abundance fitness does the source give for RELEKFAAEFKVRRIKLGYTQTNVGEALAAVHGSEFSQTTICRFENLQLSFKNACKLKAILSKWLEEAE [N8A] here?
**A.** The abundance fitness was 0.133 ± 0.064.

**Q.** With RELEKFANEQKVRRIKLGYTQTNVGEALAAVHGSEFSQTTICRFENLQLSFKNACKLKAILSKWLEEAE [F10Q] as the variant, how does the abundance fitness read?
**A.** Its abundance fitness is -0.434 ± 0.12.

**Q.** Which abundance fitness does the source give for RELEKFANEFKVRRIKLGYTQTNVGEALAAVHGSEFSQTTICRFENLQLSFKNACKLKAILSMWLEEAE [K63M] here?
**A.** The abundance fitness was -0.155 ± 0.13.

**Q.** With RELEKFANEFKVRRIKLGYTATNVGEALAAVHGSEFSQTTICRFENLQLSFKNACKLKAILSKWLEEAE [Q21A] as the variant, how does the abundance fitness read?
**A.** The abundance fitness was -0.16 ± 0.079.

**Q.** With RELEKFAFEFKVRRIKLGYTQTNVGEALAAVHGSEFSQTTICRFENLQLSFKNACKLKAILSKWLEEAE [N8F] as the variant, how does the abundance fitness read?
**A.** The abundance fitness was -0.262 ± 0.073.

**Q.** Which abundance fitness does the source give for RELECFANEFKVRRIKLGYTQTNVGEALAAVHGSEFSQTTICRFENLQLSFKNACKLKAILSKWLEEAE [K5C] here?
**A.** Its abundance fitness is -0.647 ± 0.089.

**Q.** For RELEKFANEFKVRRIKLGYNQTNVGEALAAVHGSEFSQTTICRFENLQLSFKNACKLKAILSKWLEEAE [T20N], which abundance fitness is on record?
**A.** The abundance fitness was -0.384 ± 0.099.

**Q.** Which abundance fitness does the source give for RELEKFANEFKVRRIKLGYTQTNYGEALAAVHGSEFSQTTICRFENLQLSFKNACKLKAILSKWLEEAE [V24Y] here?
**A.** The abundance fitness was -0.767 ± 0.29.

**Q.** With RELEKQANEFKVRRIKLGYTQTNVGEALAAVHGSEFSQTTICRFENLQLSFKNACKLKAILSKWLEEAE [F6Q] as the variant, how does the abundance fitness read?
**A.** The abundance fitness was -0.916 ± 0.13.

**Q.** With RELEKFANEFKVRRIKLGYTQTNVGEALAAVHMSEFSQTTICRFENLQLSFKNACKLKAILSKWLEEAE [G33M] as the variant, how does the abundance fitness read?
**A.** Its abundance fitness is -0.792 ± 0.14.

**Q.** Which abundance fitness does the source give for RELEKFANEFKDRRIKLGYTQTNVGEALAAVHGSEFSQTTICRFENLQLSFKNACKLKAILSKWLEEAE [V12D] here?
**A.** The abundance fitness was -0.175 ± 0.12.

**Q.** For RELEKFANEFKVRRIKLGYTQTNVGEALAAVHGSCFSQTTICRFENLQLSFKNACKLKAILSKWLEEAE [E35C], which abundance fitness is on record?
**A.** Its abundance fitness is -0.182 ± 0.063.

**Q.** For RELEKFANEFKVRRIKLGYTQTNVGEALAAVHGSEFSQTTICRFENLQLSFKNACKLKAILSKWLELAE [E67L], which abundance fitness is on record?
**A.** The abundance fitness was -0.594 ± 0.097.

**Q.** With RELEKFANEFKVRRIKLGYTQTNVGEALAAVHGSEFSQTTICRFENLQLSPKNACKLKAILSKWLEEAE [F51P] as the variant, how does the abundance fitness read?
**A.** Its abundance fitness is -0.142 ± 0.078.

**Q.** For RELEKFANEFKVRRIKLGYTQTNVGEALAAVHGSEFSQTTICRFENLQLSFKNACKLYAILSKWLEEAE [K58Y], which abundance fitness is on record?
**A.** Its abundance fitness is -0.511 ± 0.098.

**Q.** For RELEKFANEFKVRRIKLGYTQTNVGEALAAVHGSEFSQTTICRFENLQLSFKNACKLKAILSQWLEEAE [K63Q], which abundance fitness is on record?
**A.** Its abundance fitness is -0.157 ± 0.11.

**Q.** For RELEKFANEFKVRRIKLGYTQTNVGEALAAVHGSEFSQTTICFFENLQLSFKNACKLKAILSKWLEEAE [R43F], which abundance fitness is on record?
**A.** The abundance fitness was -0.289 ± 0.42.
